Data: US10869932B2, “Compositions and methods for modifying the surface of cells and methods of use” (UNIVERSITY OF UTAH RESEARCH FOUNDATION, priority 2014, dated 2020)

Molecular target: SDF-1 (Homo sapiens, UniProt P48061)
Test: SDF-1 binding to rCXCR4 on the surface of MSCs
Assay type: cell-based
Conditions: FITC-SDF-1, 30 minutes at 4° C.
Procedure: FITC-labeled rSDF-1 (FITC-SDF-1) and rhodamine-labeled rCXCR4 (Rho-CXCR4) were prepared according to the manufacturer's protocol. MSCs were then modified with DMPE-PEG-Rho-CXCR4 or DMPE-PEG-CXCR4. Modified MSCs and non-modified MSCs were incubated with FITC-SDF-1 for 30 minutes of incubation at 4° C. under gentle shaking. […] In order to avoid unknown effects of rhodamine on the interaction between SDF-1 and CXCR4, FITC-SDF-1 was added to MSCs modified with DMPE-PEG-CXCR4. […] Weak SDF-1 intensity was detected on the surface of the non-modified MSCs (see FIG. 12; Control+FITC-SDF-1).
Additional evidence of SDF-1 binding to CXCR4 with CXCR4 detection on the surface of the MSC was achieved by the same methods as employed in the previous experiment. MSCs were modified with DMPE-PEG-CXCR4 and the modified MSCs were incubated with FITC-SDF-1.

Chain of SDF-1 (P48061 22-93, species assumed): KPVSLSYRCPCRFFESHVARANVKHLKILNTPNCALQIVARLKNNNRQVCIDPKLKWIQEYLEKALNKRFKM

DMPE-PEG-Rho-CXCR4: DMPE-PEG conjugated with rhodamine-labeled rCXCR4
SDF-1 binding on the surface of modified MSCs (confocal): FITC-SDF-1 was co-localized with CXCR4
